Assay results: patent US20240270846A1 (published 2024)
Changes are numbered by the printed parent chain.

B1: dBBDu139 (antibody, human IgG1, V domains shown)
VH: QVQLVESGGGLVQPGRSLRLSCAASGFTFSNAWMHWVRQAPGKGLEWVAQIKDRGNAYNAYYAESVKGRFTISRDDSKNSIYLQMNSLKTEDTAVYYCRFVHYRHPLLHIQYGVDAWGQGTTVTVSS
VL: DIVMTQSPLSLPVTPGEPASISCRSSQSLVHSNRNTYLHWYQQKPGQAPRLLIYKVSNRFSGVPDRFSGSGSGTDFTLKISRVEAEDVGVYYCGQGTQVPYTFGQGTKLEIK
notes: IgG: VH joined to human IgG1 CH1-Fc, GLS3000 as light chain
B2: dBBDu197 (antibody, human IgG1, V domains shown)
VH: QVQLVESGGGLVQPGRSLRLSCAASGFTFSNAWMHWVRQAPGKGLEWVAQIKDRSNAYAAYYAPSVKGRFTISRDDSKNSIYLQMNSLKTEDTAVYYCHYVHYASASTVLPAFGVDAWGQGTTVTVSS
VL: B1 VL
notes: as for B1
B3: dBBDu217 (antibody, human IgG1, V domains shown)
VH: QVQLVESGGGLVQPGRSLRLSCAASGFTFSNAWMHWVRQAPGKGLEWVAQIKDRQQGYATYYAPSVKGRFTISRDDSKNSIYLQMNSLKTEDTAVYYCRFVHYHLAGYGYYGVDAWGQGTTVTVSS
VL: B1 VL
notes: as for B1
B4: dBBDu122 (antibody, human IgG1, V domains shown)
VH: B2 VH with N56Q, A57L, P111G, F113Y
VL: B1 VL
notes: IgG: VH joined to human IgG1 CH1-Fc, GLS3000 as light chain; also called DXDU01_3_#072; DXDU01_3 #072
B5: dBBDu193 (antibody, human IgG1, V domains shown)
VH: B2 VH with A57Q, A60T, A104S, S105A, V109L, A112S
VL: B1 VL
notes: as for B1
B6: dBBDu127 (antibody, human IgG1, V domains shown)
VH: B2 VH with S55G, N56Q, A57Q, A59N, T108S, A112G, F113Y
VL: B1 VL
notes: IgG: VH joined to human IgG1 CH1-Fc, GLS3000 as light chain; also called DXDU01_3_#051; DXDU01_3 #051
B7: dBBDu121 (antibody, human IgG1, V domains shown)
VH: B2 VH with R54K, S55G, S107A, T108G, V109G, A112G
VL: B1 VL
notes: IgG: VH joined to human IgG1 CH1-Fc, GLS3000 as light chain; also called DXDU01_3_#094; DXDU01_3 #094
B8: dBBDu173 (antibody, human IgG1, V domains shown)
VH: B2 VH with R54K, S55G, A57L, S107G, T108G, V109G, P111S, F113Y
VL: B1 VL
notes: as for B1
B9: dBBDu186 (antibody, human IgG1, V domains shown)
VH: B2 VH with A57Q, A60T, S105Q
VL: B1 VL
notes: as for B1
B10: dBBDu183 (antibody, human IgG1, V domains shown)
VH: B2 VH with R54K, S55G
VL: B1 VL
notes: as for B1
B11: dBBDu167 (antibody, human IgG1, V domains shown)
VH: B2 VH with R54K, S55G, A57L, S107G, T108G, V109G, A112G
VL: B1 VL
notes: as for B1
B12: dBBDu222 (antibody, human IgG1, V domains shown)
VH: QVQLVESGGGLVQPGRSLRLSCAASGFTISSAWMHWVRQAPGKGLEWVAQIKDRANGYAAYYAPSVKGRFTISRDDSKNSIYLQMNSLKTEDTAVYYCRYVHYATAYDGFYGFGVDAWGQGTTVTVSS
VL: B1 VL
notes: as for B1
B13: dBBDu202 (antibody, human IgG1, V domains shown)
VH: B2 VH with R54K, S55G, A104S, S105A
VL: B1 VL
notes: as for B1
B14: dBBDu179 (antibody, human IgG1, V domains shown)
VH: B2 VH with A57Q, A60T
VL: B1 VL
notes: as for B1
B15: dBBDu196 (antibody, human IgG1, V domains shown)
VH: B2 VH with S55G, A59N, P64E
VL: B1 VL
notes: as for B1
B16: dBBDu123 (antibody, human IgG1, V domains shown)
VH: B2 VH with S55A, A57S, A59N, A104S, S105A, V109L, A112S
VL: B1 VL
notes: IgG: VH joined to human IgG1 CH1-Fc, GLS3000 as light chain; also called DADU01_3_#018; DADU01_3 #018
B17: dBBDu124 (antibody, human IgG1, V domains shown)
VH: B2 VH with R54K, S55Q, A57L, A59N, P64E
VL: B1 VL
notes: IgG: VH joined to human IgG1 CH1-Fc, GLS3000 as light chain; also called DADU01_3_#002; DADU01_3 #002
B18: dBBDu204 (antibody, human IgG1, V domains shown)
VH: B2 VH with A57N, A60T, P64E
VL: B1 VL
notes: as for B1
B19: dBBDu189 (antibody, human IgG1, V domains shown)
VH: B2 VH with V48I, A57Q, A60T, S105Q, T108S, V109L, A112S
VL: B1 VL
notes: as for B1
B20: dBBDu205 (antibody, human IgG1, V domains shown)
VH: B2 VH with N56Q, A57L
VL: B1 VL
notes: as for B1
B21: dBBDu199 (antibody, human IgG1, V domains shown)
VH: B2 VH with R54K, S55Q, N56S, A57G, A59N, A60T
VL: B1 VL
notes: as for B1
B22: dBBDu126 (antibody, human IgG1, V domains shown)
VH: QVQLVESGGGLVQPGRSLRLSCAASGFTFSIAWMHWVRQAPGKGLEWVAQIKDRVNAYEAYYAPSVKGRFTISRDDSKNSIYLQMNSLKTEDTAVYYCRYVHYASYYDLLGYGGVDAWGQGTTVTVSS
VL: B1 VL
notes: IgG: VH joined to human IgG1 CH1-Fc, GLS3000 as light chain; also called DADU01_3_#001; DADU01_3 #001

These binders were tested against T1, biotin-labeled human CD137 fused to human IgG1 Fc fragment (human, biotin-labeled) (assay: bead ELISA, IgG on biotin-human CD137-Fc on streptavidin beads, no free CD3e).
T1 construct: Immobilised on streptavidin beads through biotin; also called human CD137-Fc; biotin-human CD137-Fc
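Wherever ELISA signal, free CD3e 125 pmol/well is given: bead ELISA on streptavidin-coated magnetic beads, with the signal read as well fluorescence 2 min after APS-5 addition.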

Binder | ELISA signal, free CD3e 0 pmol/well
B1 | 9440
B2 | 54400
B3 | 19100
B4 | 2700
B5 | 18200
B6 | 3230
B7 | 3610
B8 | 6540
B9 | 34800
B10 | 34000
B11 | 25700
B12 | 7190
B13 | 12100
B14 | 61000
B15 | 33100
B16 | 2750
B17 | 6620
B18 | 43700
B19 | 27400
B20 | 45200
B21 | 40900
B22 | 116000

These binders were tested against T1, biotin-labeled human CD137 fused to … (assay: competitive bead ELISA, IgG on biotin-human CD137-Fc, competitor free CD3 epsilon peptide 125 pmol/well).

Binder | ELISA signal, free CD3e 125 pmol/well
B1 | 1920
B2 | 2110
B3 | 2420
B4 | 1880
B5 | 2280
B6 | 2200
B7 | 1830
B8 | 2040
B9 | 2500
B10 | 2370
B11 | 1940
B12 | 3240
B13 | 1930
B14 | 2620
B15 | 2220
B16 | 1840
B17 | 2120
B18 | 1880
B19 | 2190
B20 | 2190
B21 | 2370
B22 | 2610

These binders were tested against T1, biotin-labeled human CD137 fused to … (assay: competitive bead ELISA, decrease of signal on biotin-human CD137-Fc with 125 pmol/well free CD3 epsilon peptide against 0).

Binder | Signal decrease [%]
B1 | 79.6
B2 | 96.1
B3 | 87.3
B4 | 30.2
B5 | 87.5
B6 | 32
B7 | 49.4
B8 | 68.8
B9 | 92.8
B10 | 93
B11 | 92.5
B12 | 55
B13 | 84
B14 | 95.7
B15 | 93.3
B16 | 33
B17 | 68
B18 | 95.7
B19 | 92
B20 | 95.2
B21 | 94.2
B22 | 97.8
